# Source: the RNAGym collection of RNA variant scans (doi:10.7554/elife.80360)
# B1: CPEB3 Ribozyme (parent)
# chain: GGGGGCCACAGCAGAAGCGUUCACGUCGCGGCCCCUGUCAGAUUCUGGUGAAUCUGCGAAUUCUGCUGU
# Variants of: B1
# Experiment: self-cleavage, relative activity (ratio to wild type); higher = more cleavage; co-transcriptional
row,Variant,self-cleavage
1,GGUGUCCACAGCAGAAGCGUUCACGUCGCGGCCCCUGUCAGAUUCUGGUGAAUCUGCGAAUUCUGCUGU [G3U G5U],0.0488
2,GGUGGCCACAGCAGAAGCGUUCACGUCGCGGCCCCUGUCAGAUUCUGGUGAAUCUGGGAAUUCUGCUGU [G3U C57G],0.0443
3,GGUGGCCACAUCAGAAGCGUUCACGUCGCGGCCCCUGUCAGAUUCUGGUGAAUCUGCGAAUUCUGCUGU [G3U G11U],0.0744
4,GGUGGCCACAACAGAAGCGUUCACGUCGCGGCCCCUGUCAGAUUCUGGUGAAUCUGCGAAUUCUGCUGU [G3U G11A],0.125
5,GGUGGCCACAGCAGAAACGUUCACGUCGCGGCCCCUGUCAGAUUCUGGUGAAUCUGCGAAUUCUGCUGU [G3U G17A],0.0459
6,GGUGGCCACAGCAGAAGCGUUCACGUCGCGGCGCCUGUCAGAUUCUGGUGAAUCUGCGAAUUCUGCUGU [G3U C33G],0.0603
7,GGUGGCCACAGCAGAAGCGUUCACGUAGCGGCCCCUGUCAGAUUCUGGUGAAUCUGCGAAUUCUGCUGU [G3U C27A],0.0666
8,GGUGGCCACAGCAGAAGCGUUCACGUCGCGCCCCCUGUCAGAUUCUGGUGAAUCUGCGAAUUCUGCUGU [G3U G31C],0.0621
9,GGUGGCCACAGCAGAAGCGUUCACGUCGCGGCCCCUGUCAGAUUCUAGUGAAUCUGCGAAUUCUGCUGU [G3U G47A],0.192
10,GGUGGCCACAGCAAAAGCGUUCACGUCGCGGCCCCUGUCAGAUUCUGGUGAAUCUGCGAAUUCUGCUGU [G3U G14A],0.0323
11,GGUGGCCACAGCAGAAGCGUUCACGUCGCGGCCCCUGUCAGAUUCUGGUGAAUCUGCUAAUUCUGCUGU [G3U G58U],0.189
12,GGUGGCCACAGCAGAAGCGUUCACGUCGCGGCCCCUGUCAGAUUAUGGUGAAUCUGCGAAUUCUGCUGU [G3U C45A],0.105
13,GGUGGCCACAGCAGAAGCGUUCACGUCGCGGCCCCUGUCAGAUUGUGGUGAAUCUGCGAAUUCUGCUGU [G3U C45G],0.112
14,GGUGGCCACAGCAGAAGCGUUCACGUCGCGGCCCCUGUCAGAUUCUGGUGAAUCUGCGAAUUCUGAUGU [G3U C66A],0.0783
15,GGUGGCCACAGCAGAAGCGUUCACAUCGCGGCCCCUGUCAGAUUCUGGUGAAUCUGCGAAUUCUGCUGU [G3U G25A],0.046
16,GGUGGCCACAGCAGAAGCGUUCACUUCGCGGCCCCUGUCAGAUUCUGGUGAAUCUGCGAAUUCUGCUGU [G3U G25U],0.0356
17,GGUGGCCACAGCAGAAGCGUUCACGUCGGGGCCCCUGUCAGAUUCUGGUGAAUCUGCGAAUUCUGCUGU [G3U C29G],0.0557
18,GGUGGCCACAGCAGAAGCGUUCACGUCGAGGCCCCUGUCAGAUUCUGGUGAAUCUGCGAAUUCUGCUGU [G3U C29A],0.0168
19,GGUGGCCACAGCAGAAGCGUUCACGUCGCGGACCCUGUCAGAUUCUGGUGAAUCUGCGAAUUCUGCUGU [G3U C32A],0.0393
20,GGUGGCCACAGCAGAAGCGUUCACGUCGCGGGCCCUGUCAGAUUCUGGUGAAUCUGCGAAUUCUGCUGU [G3U C32G],0.054

row,Variant,self-cleavage
1,GGUGGCCACAGCAGAAGCGUUCACGUCGCGGCCCCUGUCAGAUUCUGGUUAAUCUGCGAAUUCUGCUGU [G3U G50U],0.171
2,GGUGGCCACAGCAGAAGCGUUCACGUCGCGGCCCCUGUCAGAUUCUGGUAAAUCUGCGAAUUCUGCUGU [G3U G50A],0.172
3,GGUGGCCACAGCAGAAGCCUUCACGUCGCGGCCCCUGUCAGAUUCUGGUGAAUCUGCGAAUUCUGCUGU [G3U G19C],0.0665
4,GGUGGCCACAGCAGAAGCGUUCACGUCGCGGCCCUUGUCAGAUUCUGGUGAAUCUGCGAAUUCUGCUGU [G3U C35U],0.0525
5,GGUGGCCACAGCAGAAGCGUUCACGUCGCGGCCCCUGUCAGAUUCUGUUGAAUCUGCGAAUUCUGCUGU [G3U G48U],0.135
6,GGUGGCCACAGCAGAAGCGUUCACGUCGCGGCCCCUGUCAGAUUCUGCUGAAUCUGCGAAUUCUGCUGU [G3U G48C],0.151
7,GGUUGCCACAGCAGAAGCGUUCACGUCGCGGCCCCUGUCAGAUUCUGGUGAAUCUGCGAAUUCUGCUGU [G3U G4U],0.0247
8,GGUGGCCACAGCAGAAGUGUUCACGUCGCGGCCCCUGUCAGAUUCUGGUGAAUCUGCGAAUUCUGCUGU [G3U C18U],0.0757
9,GGUGGCCACAGCAGAAGGGUUCACGUCGCGGCCCCUGUCAGAUUCUGGUGAAUCUGCGAAUUCUGCUGU [G3U C18G],0.0415
10,GGUGGCCACAGCAGAAGAGUUCACGUCGCGGCCCCUGUCAGAUUCUGGUGAAUCUGCGAAUUCUGCUGU [G3U C18A],0.0631
11,GGUGGCCACAGCAGAAGCGUUCACGUCGCGGCCGCUGUCAGAUUCUGGUGAAUCUGCGAAUUCUGCUGU [G3U C34G],0.643
12,GGUGGCCACAGCAGAAGCGUUCACGUCGCGGCCCCUGUCAGAUUCUGGUGAAUCUACGAAUUCUGCUGU [G3U G56A],0.035
13,GGUGGCCACAGCAGAAGCGUUCACGUCGCGGCCCCUGUCAGAUUCUGGUGAAUCUGCGAAUUCUGCUCU [G3U G68C],0.548
14,GGUGGCCACAGCAGAAGCGUUCACGUCGCGGCCCCUGUCAGAUUCUGGUGAAUCUGCGAAUUGUGCUGU [G3U C63G],0.1
15,GGUGGCCACAGCAGAAGCGUUCACGUCGCGGCCCCUGUCAGAUUCUGGUGAAUCUGCGAAUUAUGCUGU [G3U C63A],0.0888
16,GGUGGCCACAGCAGAAGCGUUCACGUCACGGCCCCUGUCAGAUUCUGGUGAAUCUGCGAAUUCUGCUGU [G3U G28A],0.0444
17,GGUGGCCACAGCAGAAGCGUUCACGUCGCGGCCCCUGUCAGAUUCUGGUGAAUCUGCGAAUUCUUCUGU [G3U G65U],0.101
18,GGUGGCCACAGUAGAAGCGUUCACGUCGCGGCCCCUGUCAGAUUCUGGUGAAUCUGCGAAUUCUGCUGU [G3U C12U],0.169
19,GGUGGCCACAGGAGAAGCGUUCACGUCGCGGCCCCUGUCAGAUUCUGGUGAAUCUGCGAAUUCUGCUGU [G3U C12G],0.0607
